In the nanobody polyreactivity screen of Harvey et al. (2022):

Test: yeast display, Sf9 membrane polyspecificity reagent, FACS + sequencing; frameworks hold sequencing errors
In short: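 Using colony PCR, genes from sorted yeast display clones were amplified, then sequenced on MiSeq at 2 × 250 and filtered by CDR length. The clones had been stained with 10% biotinylated, detergent-solubilized Sf9 membrane reagent for 1 hour at 4 °C and sorted by FACS into low and high (top ~1%) gates on anti-HA and streptavidin fluorescence. Polyreactivity labels come from the gate of origin.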

Sequence	polyreactivity (PSR sort gate)
QVQLVESGGGLVQAGGSLRLSCAASGRIFSPYAMGWYRQAPGKERELVAAINSIGGSTYYADSVKGRFTISRDNAKNTVYLQMNSLKPEDTAVYYCAVKWYRLGLIRWGGYWGQGTQVTVSS	high polyreactivity
QVQLVESGGGLVQAGGSLRLSCAASGRIFSQYDMGWYRPAPGKERELVAAISGGVGTNYADSVKGRFTISRDNAKNTVYLQMNSLKPEDTAVYYCAADYSFERSEYEYWGQGTQVTVSS	low polyreactivity
QVQLVESGGGLVQAGGSLRLSCAASGRIFSRNAMGWYRPAPGKERELVAAISWRGGRTYYADSVKGRFTISRDNAKNTVYLQMNSLKPEDTAVYYCNAVYRLSHYDLDYWGQGTQVTVSS	high polyreactivity
QVQLVESGGGLVQAGGSLRLSCAASGRIFSRNAMGWYRQAPGKERELVAAISRRGGSTSYADSVKGRFTISRDNAMNTVYLQMNSLKPEDTAVYYCAAEDEYYCTRGYWYSRYDYWGQGTQVTVSS	high polyreactivity
QVQLVESGGGLVQAGGSLRLSCAASGRIFSRNTMGWYRQAPGKEREIVAAISQSGGRTYYADSVKGRFTISRDNAKNPVYLQMNSLNPEDTEVYYCNAQFARSSGFNYWGQGTQVTVSS	high polyreactivity
QVQLVESGGGLVQAGGSLRLSCAASGRIFSRYALGWYRQAPGKERELVAGITRSGTTTYYADSVKGRFTISRDNAKNTVYLQMNSLKPEDTAVYYCAAPPIGPNLYDYWGQGTQVTVSS	high polyreactivity
QVQLVESGGGLVQAGGSLRLSCAASGRIFSRYAMGGYRQAPGTERELVAAINNGGSTYYADSVKGRFTISRDNAKNTVYLQMNSLKPEDTAVYYCAKLWWSNFKPVEYWGQGTQVTVSS	low polyreactivity
QVQLVESGGGLVQAGGSLRLSCAASGRIFSRYAMGWYRQAPGKERELVAAISCNGCSTYYADSVKGRFTISRDNAKNTVYLQMNSLKPEDTAVYYCAAYRPGPYAAYGYWGQGTQVTVSS	high polyreactivity
QVQLVESGGGLVQAGGSLRLSCAASGRIFSRYAMGWYRQAPGKERELVAAITRGGSTYYADSVKGRFTISRDNAKNTVYLQMNSLKPEDTAVYYCAKDGYRPDDYGYWGQGTQVTVSS	high polyreactivity
QVQLVESGGGLVQAGGSLRLSCAASGRIFSRYTMGWYRQAPGKERELVAAISSRGGSTYYADSVKGRFTISRDNAKNTVYLQMNSLKREDTAVYYCNTPSYSGSSPYDHWGQGTQVTVSS	high polyreactivity
QVQLVESGGGLVQAGGSLRLSCAASGRIFSRYTMGWYRQAPGKERELVAAISSRGGSTYYADSVKVRFTISRDNAKNTVYLQMNSLKPEDTAVYYCNTPSYSGSSPYDHWGQGTQVTVSS	high polyreactivity
QVQLVESGGGLVQAGGSLRLSCAASGRIFSRYVMGWYRQAPGKERELVAAISWNGGSTYYADSVKGRFRISRDNAKNTVYFQMNSLIPEDTAVYYCAARVRVTGTYYTKYDYWGQGTQVTVSS	high polyreactivity
QVQLVESGGGLVQAGGSLRLSCAASGRIFSSNAMGWYRQAPGKERELVAAITKSGGGTYYADSVKGRFTISRDNAKNTVYLQMNSLKPEDSAVYYCAADHGRPYFSYDYWGQGTQVTVSS	low polyreactivity
QVQLVESGGGLVQAGGSLRLSCAASGRIFSSNAMGWYRQAPGTERELVAAITSGGSTYADSVKGRFTISRDNAKNTVYLQMNSLKPEDTAVYYCATRQGWYGWYGYWGQGTQVTVSS	high polyreactivity
QVQLVESGGGLVQAGGSLRLSCAASGRIFSSYAMGWYRQAPGKERELVAAISRGGSTYYADSVKGRFTISRDNAKNTVYLQMNSLKPEDTAVYYCAAASYSYSERRYYYWGQGTQVTVSS	high polyreactivity
QVQLVESGGGLVQAGGSLRLSCAASGRIFSSYVMGLYRQAPGKERELVAAIRWSGGSTYYADSVKGRFTISRDNAKNTVYLQMNSLKPEDTAVYYCAAEVYRYYATGYGYWGQGTQVTVSS	high polyreactivity
QVQLVESGGGLVQAGGSLRLSCAASGRIFSTNARGWYRQAPGKQRELVAVITGIGGITYYADSVKGRFTISSDNAKNTVYLKMNSLKPEDTAVYYCGADPISEFYWGVKDRYDYWGQGTQVTVSS	low polyreactivity
QVQLVESGGGLVQAGGSLRLSCAASGRIFSVKVMGWYRQAPGKERELVAAITWSVGSTYYADSVKGRFTISRDNPKNTVSLQMNSLKREDTAVYYCAARGPPVYGRVGGYHYWGQGTQVTVSS	low polyreactivity
QVQLVESGGGLVQAGGSLRLSCAASGRIFSVYAMGWYRQAPGTERELVAVITTSGGSTYYADSVKGRFTISRGNAKNTVYLQMNSLKPEDTAVYYCNAEPWSYAIGSYEYWGQGTQVTVSS	high polyreactivity
QVQLVESGGGLVQAGGSLRLSCAASGRIFSVYAMVWYRQAPGKEREFVAAITKGGVGTYYADSVKGRFTISRDNAKNTVYLQMNSLKPEDTAVYYFAARHYYGADRYYSWGQGTQVTVSS	high polyreactivity
QVQLVESGGGLVQAGGSLRLSCAASGRIFSVYARGWYRQAPGKERELVAAITWTGGRTYYADSVKGRFTISRDNAKNTVYLQMNSLKPEDTAVYYCAAQWVRSYQMYWGQGTQVTVSS	high polyreactivity
QVQLVESGGGLVQAGGSLRLSCAASGRIFSWNAMGWYRQAPGKERELVAAISSGGSTIYADSVKGRFTISRDNAKNTVYLQMNSLKPEYTAVYYCATRNGYSGTYGYWGQGTQVTVSS	low polyreactivity
QVQLVESGGGLVQAGGSLRLSCAASGRIFSYAMGWYRQAPGKEREFVAAIRWSGGRTYYADSVKGRFTISRDNAKNTVYLQMNSLKPEDTAVYYCARQGYTLYRTRYRYDYWGQGTQVTVSS	high polyreactivity
QVQLVESGGGLVQAGGSLRLSCAASGRIFSYAMGWYRQAPGKERELVAAITRRGSTYYADSVKGRFTISRDNAKNTVYLQMKSLKPEDTAVYYCAADIYYSRTFYPMGYWGQGTQVTVSS	high polyreactivity
QVQLVESGGGLVQAGGSLRLSCAASGRIFSYNAMGWYRQAPGKERELVAAISYSGGRTYYADSVKGRFTISRDNAKNTVYLQMNSLKPEDTAVYYCAAAYGGSLRYTAGYYWGQGTQVTVSS	high polyreactivity
QVQLVESGGGLVQAGGSLRLSCAASGRIFSYNAMGWYRQAPGKERELVAAITGGGSTNYADSVKGRFTISRDNAKNTVYLQMNSLKAEDTAVYYCAARSWSYKYWGQGTQVTVSS	high polyreactivity
QVQLVESGGGLVQAGGSLRLSCAASGRIFSYNAMGWYRQAPGKERELVAAITSSGSTYADSVKVRFTISRDNAKNTVYLQMNSLKPEDTAVYYCASYYNWSGHYYWGQGTQVTVSS	low polyreactivity
QVQLVESGGGLVQAGGSLRLSCAASGRIFSYNAMGWYRQAPGQERELVASISGRGVITYYADSVKGRFTISRDNAKNTVYLQMNSLKPEDTAVYYCNARYIYTRPRPRNYWGQGTQVTVSS	high polyreactivity
QVQLVESGGGLVQAGGSLRLSCAASGRIFSYYAMGWYRPAPGTERELVAAITRAGGTNYADSVKGRFTISRDNAKNTVYLQMNSVKPEDTAVYYCAADRSRYRYNAPRYAYDYWGQGTQVTVSS	high polyreactivity
QVQLVESGGGLVQAGGSLRLSCAASGRIFSYYAMGWYRQAPGKERELVAAINWSGGSTYYADSVKGRFTISRDNAKNTVYLQMNSLKPEDTAVYYCAVDWTSAYGTYYYTPYDSWGQGTQVTVSS	low polyreactivity
